According to patent publication JP2021155343A (dated 2021):

Target: T1, ヒトeIF5Aタンパクの(44−72番目)のアミノ酸残基から成るペプチド (human, UniProt P63241 44-72)
T1 construct: range 44-72; The peptide was coupled to KLH for immunisation; also called human eIF5A (44-72) peptide
Experiment: ELISA screening of hybridoma monoclonal antibodies

T1 sequence (P63241 44-72 limits assumed): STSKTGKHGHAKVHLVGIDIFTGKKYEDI

B1: 抗ORAIP抗体(クローン YSP5−45−36) (antibody, V domains shown)
VH: EVKLVESGGGLVQPGGSLRLSCATSGFTFTDYYMSWARQPPGKALEWLGFIRNKANGYTTEYSASVKGRFTISRDNSLGILYLQMNTLRPEDSATYYCARNYYGTSFSWFAYWGQGTLVTVSA
VL: MTQTPLSLSVSLGDQASISCRSSQSIVHFNGNTYLEWYLQKPGQSPKLLIYKVSSRFSGVPDRFSGSGSGTDFTLKISRVEAEDLGVYYCFQGSHVPPTFGGGTKLEIK
notes: Mouse monoclonal antibody from a hybridoma (mouse spleen cells fused with mouse myeloma cells); also called モノクローナル抗体(クローン YSP5−45−36); clone YSP5-45-36
B1: binds.
